# Reference: US20010052137A1, “Axin domain-like polypeptide inhibitors of glycogen synthase kinase 3 beta activity and activators of wnt signaling” (Trustees of the University of Pennsylvania, priority 2000, published 2001)
# B1: full length Xaxin: full length Xenopus axin, amino acid residues 1-842 (SEQ ID NO: 8) (protein, listed as Xenopus laevis)
# chain: MSVKGKGFPLDLGGSFTEDAPRPPVPGEEGELITTDQRPFSHTYYSLKNDGIKNETSTATPRRPDLDLGYEPEGSASPTPPYLKWAESLHSLLDDQDGIHLFRTFLQQENCADLLDFWFACSGFRKLEPNDSKVEKRLKLAKAIYKKYVLDSNGIVSRQIKPATKSFIKDCVLRQQIDPAMFDQAQMEIQSMMEDNTYPVFLKSDIYLEYTTIGGESPKNYSDQSSGSGTGKGPSGYLPTLNEDEEWRCDQGGEHERERECIPSSLFSQKLALDSSSHCAGSNRRLSDGREFRPGTWREPVNPYYVNTGYAGAPVTSANDSEQQSMSSDADTMSLTDSSVDGIPPYRLRKHYRREMQESANANGRGPLPHIPRTYHMPKDIHVDPEKFAAELISRLEGVLRDREAEQKLEERLKRVRAEEEGDDGDVSSGPSVISHKLPSGPPMHHFNSRYSETGCVGMQIRDAHEENPESILDEHVQRVMKTPGCQSPGTGRHSPKSRSPDGHLSKTLPGSLGTMQTGHGKHSSKSTAKVDSGNLHHHKHVYHHVHHHGGVKPKEQIDGESTQRVQTNFPWNVESHNYATKSRNYAESMGMAPNPMDSLAYSGKVSMLSKRNAKKADLGKSESASHEMPVVPEDSERHQKILQWIMEGEKEIIRHKKSNHSSSSAKKQPPTELARPLSIERPGAVHPWVSAQLRNVVQPSHPFIQDPTMPPNPAPNPLTQLVSKPGARLEEEEKKAAKMPQKQRLKPQKKNVSAPSQPCDNIVVAYYFCGEPIPYRTMVKGRVVTLGQFKELLTKKGNYRYYFKKVSDEFDCGVVFEEVREDDMILPIYEEKIIGQVEKID
# How the values were obtained:
# GSK-3 beta = assay: In ovo tau phosphorylation assay: GSK-3 beta and Xaxin constructs co-expressed in Xenopus oocytes; format: cell-based; conditions: construct co-expressed with GSK-3 beta in Xenopus oocytes; tau microinjected; PHF-1 immunoblot
# Experimental: Stage VI Xenopus oocytes were isolated by collagenase treatment (Smith et al., 1994, Meth. Cell Biol. 36:45-58) and were injected with mRNA prepared by in vitro transcription (mMessage Machine™; Ambion, Austin, Tex.). 10 nanoliters of mRNA (containing 1-2 nanograms per nanoliter) was injected for each construct (unless otherwise specified), and the injected oocytes were incubated for 16 hours at 18° C. To analyze the effects of Xaxin constructs on dorsal-ventral pattern formation, Xenopus embryos were injected with 10 nanoliters of mRNA (0.1-0.2 nanogram per nanoliter) into one dorsal or ventral cell of a 4 cell embryo and dorsal axes were assessed at the tadpole stage. For Xaxin co-immunoprecipitation, fertilized eggs were injected with 10 nanoliters of Xaxin tagged with Myc, with hemagglutinin, or with both Myc and hemagglutinin (1 nanogram per nanoliter) and harvested at the blastula stage (stage 8).
# In ovo phosphorylation of tau by GSK-3 beta was performed by microinjection of tau protein into oocytes expressing GSK-3 beta and Xaxin constructs. After 90 minutes, oocytes were homogenized and tau phosphorylation was analyzed in western blots using phospho-specific antibodies as described (Hedgepeth et al., 1997, Develop. Biol. 185:82-91). In vitro assays for GSK-3 beta activity were performed as described (Klein et al., 1996, Proc. Natl. Acad. Sci. USA 93:8455-8459). Recombinant GID-2/his protein (described below) was purified by affinity chromatography and added to in vitro assays at selected concentrations.
# In the experiments presented in this example, a tau phosphorylation assay (described in Hedgepeth et al., 1997, Develop. Biol. 185:82-91) was used to examine the activity of GSK-3 beta in Xenopus oocytes in the presence of full length axin and axin deletion mutants. […] Furthermore, GSK-3 beta-dependent tau phosphorylation occurs in oocytes at the same sites (tau serine residues 396 and 404) that are phosphorylated by GSK-3 beta in vitro and occurs with similarly rapid kinetics.
# GSK-3 beta was expressed in oocytes together with Myc-tagged full length Xaxin or with the amino-terminal (amino acid residues 63-288), GID-1 (amino acid residues 277-545), or carboxyl-terminal (amino acid residues 429-713) fragments of Xaxin, as depicted in FIG. 1A. Purified tau protein was then microinjected into the oocytes, and phosphorylation of tau was measured by immunoblotting using antibody PHF-1 or with antibodies that detect all (i.e. phosphorylated and non-phosphorylated) forms of tau.
# In order to identify the domain of axin necessary for GSK-3 beta binding, multiple Myc-tagged GID deletion constructs (shown diagrammatically in FIG. 3A) were individually expressed in Xenopus oocytes in which GSK-3 beta was also expressed. Tau protein was microinjected into the oocytes, and immunoblotting was performed using phosphorylation-state-specific tau antibodies. A parallel group of oocytes expressing GSK-3 beta and the Myc-tagged GID deletion constructs were lysed, and GID proteins were immunoprecipitated using a Myc-specific antibody. The presence or absence of GSK-3 beta in GID immunoprecipitates was detected using GSK-3 beta-specific antibodies. GID deletion constructs which included amino acid residues 380-404 of Xaxin (i.e. constructs GID-1, GID-2, GID-4, GID-5, and GID-6) bound GSK-3 beta and inhibited GSK-3 beta mediated tau phosphorylation, as indicated in FIG. 3A. […] However, changing leucine residue 392 in FIG. 3B to proline abolishes its activity.
# [1] = target: T1, G(alpha)q subunit of heterotrimeric G-proteins (Homo sapiens, UniProt P50148); assay: Yeast two hybrid assay, interaction with G(alpha)q; format: binding; conditions: beta-galactosidase filter assay in S. cerevisiae
# T1 sequence (P50148 1-359): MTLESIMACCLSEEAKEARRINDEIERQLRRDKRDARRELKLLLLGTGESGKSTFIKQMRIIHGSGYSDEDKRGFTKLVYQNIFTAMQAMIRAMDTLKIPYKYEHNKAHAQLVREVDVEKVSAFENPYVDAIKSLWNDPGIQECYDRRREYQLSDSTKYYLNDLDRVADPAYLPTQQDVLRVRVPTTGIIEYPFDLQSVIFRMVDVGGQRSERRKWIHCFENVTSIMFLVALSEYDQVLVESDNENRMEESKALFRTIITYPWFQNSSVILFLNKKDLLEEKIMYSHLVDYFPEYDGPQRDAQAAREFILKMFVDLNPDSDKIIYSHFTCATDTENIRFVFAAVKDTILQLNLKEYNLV
# Excerpt: FL Xaxin was cloned in frame with the GAL4 DNA binding domain (BD) in plasmid pAS2-1 (Clontech) to yield BD plasmid. Expression of BD plasmid yielded a Xaxin-GAL4 fusion protein. FL Xaxin, deltaDIX Xaxin, and a fragment (designated “AID”) encoding amino acid residues 489-777 of Xaxin were cloned in frame with the GAL4 transcriptional activation domain (AD) in the vector pACT2 to yield AD plasmids. Yeast were transformed with BD and AD plasmids using previously described protocols (Clontech, Palo Alto, Calif.). Transformed colonies were selected and assayed for beta-galactosidase activity in order to detect interacting proteins. In addition, three Xenopus axin partial length cDNAs (designated Y2H 2, Y2H 6, Y2H 7; all in plasmid pACT2) isolated from a previous yeast two hybrid screen (Hedgepeth et al., 1999, Mech. Develop. 80:147-151) were analyzed. Purification of GID
# Using the yeast two hybrid assay, the ability of axin to bind with itself, with other members of the wnt pathway, or with the G(alpha)q subunit of heterotrimeric G-proteins, was investigated. […]
# Saccharomyces cerevisiae cells were transformed with the bait vector and with one of the target vectors. Interaction was assessed using a filter assay to detect beta-galactosidase activity, as described (Fields et al., 1989, Nature 340:245-247; Harper et al., 1993, Cell 75:805-816). […]
molecule,measurement,setting,value
B1,GSK-3 beta-mediated tau phosphorylation (GSK-3 beta activity),GSK-3 beta,no discernible effect
same,interaction with G(alpha)q,[1],did not interact
